Experimental data from PMC2846751 (Biochemistry, 2010).

Assays:
[1] = biological target: ParD antitoxin (ParD1) of Caulobacter crescentus (Caulobacter crescentus); assay: SEC
crystal structure = biological target: the molecule itself; assay: crystal structure

Molecule: ParD antitoxin (ParD1) of Caulobacter crescentus (natural protein)
- stoichiometry N [1]: 2

B1: His6-ParE toxin (ParE1) of Caulobacter crescentus (natural protein, UniProt Q9A9T8 1-96, looked up)
chain: MKPYRLSRRAKADLDDIWTYSEQRWGVEQAADYARELQATIEMIAEHPGMGQPDENLRAGYRRCASGSHVVFYRVGVRVEIIRVLHQSMNARAHLG
modifications: selenomethionine-labeled in the crystal and SAXS samples
- binding result (crystal structure): binds
